“Also recorded” adds a separate entry of the source.
Test system: CT26 tumors
Assay: Treatment of small (about 5 mm) established CT26 tumors in mice
Assay type: in vivo, Balb/c mice
Description: Balb/c mice were inoculated subcutaneously with 100,000 or 200,000 CT26 cells on day 1. […] On days 8, 12, 15 and 19 mice were administered PBS or 1 μg, 10 μg or 50 μg of rHMGN1. Tumor growth was monitored and plotted.
Small CT26 tumors were treated by a combination of one intraperitoneal (i.p.) injection of a suboptimal dose of cyclophosphamide or Cytoxan to reduce regulatory T cells (Treg), a key suppressor cell type in tumors, and four intratumoral (i.t.) administrations of HMGN1 within two weeks. Balb/c mice were subcutaneously inoculated with 100,000 or 200,000 CT26 cells on day 1. When the tumor size reached about 5 mm in diameter (by 4-6 days after tumor inoculation), mice were administered one dose of cyclophosphamide (100 mg/kg, i,p.) and/or HMGN1 protein (10 μg, intratumorally), twice a week for 2 weeks. PBS was administered i.t. or i.p. Tumor growth was monitored and plotted.

B1: High Mobility Group Nucleosome-binding protein 1 (protein, UniProt P05114 1-100, looked up)
Non-histone chromosomal …: MPKRKVSSAEGAAKEEPKRRSARLSAKPPAKVEAKPKKAAAKDKSSDKKVQTKGKRGAKGKQAEVANQETKEDLPAENGETKTEESPASDEAGEKEAKSD
notes: TLR4 ligand
- tumor growth (small (about 5 mm) CT26 tumors, intratumoral rHMGN1 1, 10 or 50 μg on days 8, 12, 15 and 19): slowed down tumor growth, but did not completely eradicate tumors; also recorded: inhibited tumor growth in a dose dependent manner
- percent survival (small CT26 tumors, intratumoral rHMGN1): improvement in percent survival
